Test results taken from patent EP4696312A1 (IMBIORAY (HANGZHOU) BIOMEDICINE CO., LTD., dated 2024).
Substitutions are numbered along the chain they refer to.

Experiments:
Rhesus macaque Trop2 = target: T1, Rhesus macaque Trop2 (rhesus macaque, UniProt A0A5F8AGB8 27-274); test: BLI (OctetR8), Trop2 on His-K probes, antibody in solution
T1 construct: Recombinant protein loaded onto His-K biosensors
T1 sequence: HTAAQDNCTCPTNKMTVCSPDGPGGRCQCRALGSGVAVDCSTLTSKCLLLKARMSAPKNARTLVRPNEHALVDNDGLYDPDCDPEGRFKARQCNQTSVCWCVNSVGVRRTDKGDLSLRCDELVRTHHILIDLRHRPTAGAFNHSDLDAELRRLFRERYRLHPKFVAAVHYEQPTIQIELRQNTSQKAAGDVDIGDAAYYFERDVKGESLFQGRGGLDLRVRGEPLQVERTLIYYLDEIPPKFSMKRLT

Human Trop2 = target: T2, Human Trop2 (human, UniProt P09758 27-274); test: as above
T2 construct: Recombinant protein loaded onto His-K biosensors; also called TACSTD2; EGP-1
T2 sequence (looked up): T1 sequence with V36M, N67S, V204I

koff (Rhesus macaque Trop2): < 1e-07 s⁻¹ | kon (Rhesus macaque Trop2): 569000 M⁻¹ s⁻¹ | Kd (Human Trop2): 22.6 nM | koff (Human Trop2): 0.0127 s⁻¹ | kon (Human Trop2): 564000 M⁻¹ s⁻¹
B1: L2-conjugated antibody (anti-Trop2 monoclonal antibody conjugated to L2 linker) (antibody, human IgG1, V domains shown)
VH: EVQLVESGGGLVQPGGSLRLSCAASGFTFNNYAMSWVRQAPGKGLEWVSTISSDGTYTYYADSVKGRFTISRDNSKNTLYLQMNSLRAEDTAVYYCARHPPSYYYAFDYWGQGTTLTVSS
VL: EIVLTQSPGTLSLSPGERATLSCRASESVDSYGNSFIHWYQQKPGQAPRLLIYLASNLESGIPDRFSGSGSGTDFTLTISRLEPEDFAVYYCQQNNEDLWTFGGGTKLEIKA
modifications: L2 linker coupled to lysine residue(s); 1-4 (preferably 1-2) L2 linkers per antibody; chain and positions not stated; L2 linker (dibenzoazacyclooctyne-glutaryl-amino tetraethylene glycol-pentafluorophenyl acetylpiperidinate) coupled to lysine residue(s); 1-4 (preferably 1-2) L2 linkers per antibody; chain and positions not stated
notes: Each chain is the variable region followed by the constant region; also called IB12 (name of the expression plasmid)
